± gives the half width of the 95% confidence interval.
How the values were obtained:
[1] = folding stability dG unfold from chymotrypsin proteolysis; higher = more stable
Method: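 Folding stability of de novo designed mini-proteins (<80 aa, no Cys; designed by TrROS, TrMRF, ProteinMPNN and the joint model) was measured by cDNA display proteolysis with trypsin and chymotrypsin. Each protease was used at 11 concentrations in a threefold dilution series plus a no-protease condition. K50 was inferred by Bayesian fitting of sequencing counts, and dG unfold was derived against a sequence-predicted unfolded-state K50 (Tsuboyama et al. method). Sequences shown include variable-length N-terminal GS-type padding (SAGGSAGG...) inside a display construct carrying a PA tag. Rows were kept only if the AF2 dimer inter-PAE was >15, to exclude likely homo-oligomers.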

[2] = folding stability dG unfold (combined trypsin and chymotrypsin); higher = more stable
In short: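 Designed mini-proteins with no cysteine and under 80 residues were kept only if AlphaFold2 dimer inter-PAE was above 15. In a PA-tagged cDNA display construct, they were digested with trypsin and chymotrypsin and then sequenced. K50 was inferred by Bayesian fitting of counts, and unfolding free energy was derived per protease or combined against a sequence-predicted unfolded-state K50 and a shared folded-state K50.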

| Sequence | folding stability dG unfold [1] [kJ/mol] | folding stability dG unfold [2] [kJ/mol] |
| --- | --- | --- |
| SAGGSSRTISIPVSPSLSPEEVAELIKKEVKKMGEDKEVKVLSVDPSGRIDVLVGDEPITVDASLPSAGGSA [r2_102_JUSTAS] | 2.61 ± 0.418 | 0.982 ± 0.837 |
| SMTIKELLKAHPGQPVEDLAKRIMDEMNANFPNGMPIKINLEYDPGGIKVDVEMWNNDKPQTDEFTIRPDSA [r9_805_TrROS] | 1.37 ± 0.381 | -0.00386 ± 0.628 |
| SAGGSAGGSAGGMVKKTYEKKKPPGSMEYVTEKEYDPKTNTVKTTTVPVSEYKNIPNKNSAGGSAGGSAGGS [r10_1077_JUSTAS] | -0.404 ± 2.34 | < -4.18 |
| SAGGSAGGSAGGMIKVLEKKEFTPPTGGKEYELKTLDESNGTESIIKFPKEEYKNLKIPSAGGSAGGSAGGS [r10_326_JUSTAS] | 2.85 ± 0.502 | 0.606 ± 0.837 |
| SAGGSAGGSAGGNKIHIMMPYDWAEEFANELQQQGIDPDNVKIEVHPMEMPPPPPPGDKSAGGSAGGSAGGS [r10_602_TrROS] | -0.235 ± 0.46 | < -4.18 |
| SAGGSAGGSAGGLPPGQKYVIKMYNPNGKRQEHEFEIPPGEPFKDFEFPNGWRYDIYPVKSAGGSAGGSAGG [r7_132_TrROS] | 0.352 ± 1.21 | -1.34 ± 1.76 |
| SAGGSAGGSAGTATLELTVGGKKATATVEPDPDSPAPVVTVKVGDKPVVLNPDGTWTPADSAGGSAGGSAGG [r11_732_TrMRF] | -3.8 ± 0.837 | < -4.18 |
| SAGGSSAEELAEALKKKLEELGLEIKELELKVKKVKVEEKPKPKVELKEEKVEVKEKKFYSEEEKKSAGGSA [r2_384_TrROS_Hall] | -2.03 ± 2.89 | < -4.18 |
| SAGGGMKTSKVSTSTTTTTVPGTGAPVTVEVTSTTTTFGPNGPAVVTTTSLTYDEAGTPTTTTTTTLSAGGS [r16_200_JUSTAS] | 1.92 ± 0.46 | -0.557 ± 0.544 |
| SAGSAVVRDFDFEVPPGYGVLDVTVTEGPGPPVWEGTVTFQAGGAPETLTVTIPVDPATGARSVAMTAGSAG [r5_136_JUSTAS] | 1.12 ± 0.544 | -0.983 ± 1.05 |
| SAGGSAGGSAGMLSVTELSTEEKGSLVTTTTRATVGSTTVTTTTTTFVPRSTALLNPDRGSAGGSAGGSAGG [r11_213_JUSTAS] | 2.3 ± 0.372 | -0.213 ± 2.01 |
| SAGGSMKLKPGDEIWVPENMPEDAIKDEIKEWADNFNIKGIDDIEPPKPGWHRIKVEWPNGRKLTISAGGSA [r2_168_TrROS] | -0.616 ± 0.711 | -3.13 ± 1.26 |
| SAGGSAGGSEEFVILEIPFERKFVVKDPEGGEEREFEFRPVIPLVLPPELAEKLLKSPYLQKKSAGGSAGGS [r12_1015_TrMRF] | 3.02 ± 1.09 | 1.74 ± 0.92 |
| SAGGDKLGKPLGGKPVTFDISKEELSYNPSNGTWSKSVVTTPRTVFYPPDAEPDPAVFASGAGSVTLASAGG [r13_753_JUSTAS] | 1.18 ± 0.381 | -0.768 ± 0.322 |
| SAGGSAGGSGAEITTLPEGRALLRLYDEGGVLVEEAEVEVELDAVLVFDRDNPRIGVFGPDELSAGGSAGGS [r12_1002_TrMRF] | 0.111 ± 0.544 | -0.847 ± 0.586 |
| SAGGSAGGSAGGSKPDPEIEQERNPEKGYRTIKIEFPDKPRTIMVKNLPPDDPALRDAFSAGGSAGGSAGGS [r4_328_TrROS] | -0.178 ± 0.962 | -1.46 ± 0.753 |
| SAGGGMEEVAKKLGVPEDARLEVLKVERYYYTREVRDPLFEEGKPVGEKIIPRPYYSEKVDYKLFDKPSAGG [r13_482_JUSTAS] | -1.2 ± 1.34 | < -4.18 |
| SAGGSAGGSAGQPKPLPGGGEVKVEVYPPNNGKKKKFEIPPNEPDWIKELAKPGYSVHIESAGGSAGGSAGG [r11_1006_TrROS] | 0.0767 ± 0.372 | -2.83 ± 1.8 |
| SAGGSAGGSAGGSKVNDVTAEKNFLVFTEDGRVLGKGEVERAFAAGAGPIGAVPLPPGASAGGSAGGSAGGS [r4_47_TrMRF] | -2.26 ± 0.962 | < -4.18 |
| SAGWDLKIEPEPNPDNGMRMINIEYEDPDGDGPYTVSIMYHNGKIKAVEVQDPNTGEPELTPEALEELFSAG [r5_872_TrROS] | 0.587 ± 1.09 | -1.28 ± 2.05 |
| SAGGSAGGSAPGKHKTIEINGPGDVEEAVDYAKDEMPPGKPIHIRFNDEPITIPAEDAKKISAGGSAGGSAG [r3_50_TrROS] | 1.86 ± 0.197 | -0.268 ± 0.92 |
| SAGGSAGGSAGGKKKVKILEVKKIPELNEIVVVIETENGKPVLVPLKPGKTLEDVKKEISAGGSAGGSAGGS [r10_984_TrMRF] | 3.82 ± 0.176 | 1.84 ± 0.879 |
| SAGGSAGGSAGGSSTITLDPANPTVVTDPATGVPTTGVSLAELEKLGMKPAGPDAYVVLSAGGSAGGSAGGS [r4_306_JUSTAS] | 1.21 ± 0.753 | < -4.18 |
| SAGGSAGGSQWIEIELPLPNGRNIQIEMWPNNGMVDVEWPDGKEVEFPVETADDALDRVLDALSAGGSAGGS [r12_866_TrROS] | 2.31 ± 0.502 | 0.147 ± 0.879 |

| Sequence | folding stability dG unfold [1] [kJ/mol] | folding stability dG unfold [2] [kJ/mol] |
| --- | --- | --- |
| SAGGSAGGSAMPLGVTTSTSTSLLPSNSRLVTETITTPGTTSTTTTLLTPPPGEVLETTTTSSAGGSAGGSA [r18_459_JUSTAS] | 4.17 ± 0.113 | 2.2 ± 0.377 |
| SAGGSAGGSNWIEKAINEAMKQHPPGQERKVPIEIYNPNNNKPIGKIPIRIRMDKDGPMEIEISAGGSAGGS [r20_151_TrROS] | 3.61 ± 0.205 | 2.22 ± 0.31 |
| SAMNVTLTKHPDGTYTVGATLPGYSPVSTQTIPSSVPSYTVTYRTPDEVLKVTYKDSGLTPERVPISRLSAG [r14_403_JUSTAS] | 1.65 ± 0.222 | -0.143 ± 0.184 |
| SAGGSAGGSAGGVRIPPGHWKHRLGFPNGKENEFNIPPGAPIEIPPNADDVKIQEIEPVPSAGGSAGGSAGG [r7_542_TrROS] | -1.05 ± 1.51 | < -4.18 |
| SAGPITPEEIQEKVTKAMEEEGMDNVNVDVQRDEDNGRITIQVEVQMPPGNKEKAQRIQDAIQDELGIKSAG [r5_9_TrROS] | 3.72 ± 0.259 | 1.16 ± 0.414 |
| SAGGSAGGSAGGGMTTTYTTETIEAPDGTVVIKKTTTYDYGNGSLTKPTIYNPDGTPIGSAGGSAGGSAGGS [r10_1056_JUSTAS] | 1.89 ± 0.586 | -0.788 ± 0.502 |
| SAGGSAGGSAGGGMEFSTVTVKRTLKTLGKTEVTTVPVVNPVPPPPPLGPENIARSRGVLSAGGSAGGSAGG [r7_79_JUSTAS] | -0.207 ± 0.879 | < -4.18 |
| SAGVKIERDPNPGWMEITYPIDNKPIQIEIPMDPNNGQMKVKVEYGDGKPKEYTIPGGSIEEIIEDLFSAGG [r19_159_TrROS] | 0.463 ± 0.962 | < -4.18 |
| SAGGSAGGSAGGSMVPVPVNILKLAPGGIPLGTYPVEPLRKEGISPEEFAKKNGYIISGSAGGSAGGSAGGS [r10_153_JUSTAS] | -0.109 ± 1.26 | -3.46 ± 1.09 |
| SAGGSAGGDKVTIESFHPENWYFRIRYPGNGKPISFPIKSVDELLDKIEPSGLPVEIEWMPPEESAGGSAGG [r6_33_TrROS] | 0.975 ± 1.09 | -0.104 ± 1.34 |
| SAGGSAGGSAGGMVEVLPVPDGSTLERDPAGYVTRYDPATGTATTVPLADVELSPGSPELSAGGSAGGSAGG [r7_656_JUSTAS] | 2.84 ± 0.46 | -0.299 ± 0.962 |
| RTISIDEIREKLGMDPDDLKNMPMEEIADEIRDELPPGRAKGVKISPNEDDGMWTITVKYKNGRPVEITIDS [r1_340_TrROS] | 2.81 ± 0.669 | 0.652 ± 1.55 |
| SAGMVIELPNATITIETVPDPSSSNKVYRVTVTAHLPDGSRPVVVLTFPENVPIEEILKEAIKAAEELLSAG [r5_704_JUSTAS] | 24.8 ± 0.586 | > 25.1 |
| SAGGSAGGSAGGSKKKKKKPKKVLLVRNKKTKKLYVFKTKEEAKKAGFEIVKDGKIKKKSAGGSAGGSAGGS [r4_306_TrROS_Hall] | 1.08 ± 2.3 | 0.392 ± 1.72 |
| SAGGSAGGSSMEVVTPIERPVDVTSPENGEVVKVRVKTLVGKDPNAWTTETTLTLPDGTPVALSAGGSAGGS [r12_283_JUSTAS] | 4.13 ± 0.46 | 1.41 ± 0.837 |
| SAGGSAGGMPVVVETRPDPETGNEIVRITVPKPNYTLVLRRDSQGKETLLAEIGPYTPDDPGLLSAGGSAGG [r6_149_JUSTAS] | 1.98 ± 0.753 | -0.0403 ± 0.962 |
| SAGGMKIEKTPVKIEKEGEDTVIEYKETEYLPDGTVKEYEGILRIPKNTGKITTLEKKLLSTEPILGSAGGS [r16_729_JUSTAS] | -1.58 ± 1.26 | < -4.18 |
| SAGGSAGGKEVKVTLEYDEETGTLTLTVETPDGYVFKLEITFEKDEDGNLKVTIKLEVIPLEDLSAGGSAGG [r6_537_TrROS_Hall] | 18.6 ± 0.879 | 18.4 ± 2.55 |
| SAGGSAGGSAGGLLRAPDGSTAIVVRDASPETVARALHELNPNAVIVVAPIPNVAVIYLDSAGGSAGGSAGG [r7_370_TrMRF] | 0.746 ± 0.418 | -2.41 ± 2.13 |
| SAGGSAGGSAGGSKVPPGAKITVERHDGGYRTVEIRPPNGKPVEIMMPEDDADEIADQISAGGSAGGSAGGS [r4_16_TrROS] | -5.27 ± 3.43 | < -4.18 |
| STRTVPIPIRWDNGRLSPDDIRNAIKKALPPGENVKITEETIQNFWQEWAGKNGKPMTPEDFPIRIEVKKSA [r9_197_TrROS] | 0.227 ± 1.51 | -0.827 ± 1.13 |
| SAGGSAGGSASLVVVTTKPPNGPETVELTTDYPPDVRRVTTDPKTGATSEVVVLPADAVLPSAGGSAGGSAG [r3_356_JUSTAS] | 3.65 ± 0.251 | 1.23 ± 0.837 |
| SAGGSAGGSAGPDVEVVIIPVDPETGEPLDALPIPIPSPEGGLVDEIVKAIPPDRYRVLASAGGSAGGSAGG [r17_339_TrMRF] | -1.41 ± 1.88 | < -4.18 |

From the supplement of paper PMC12764529
